Test results taken from PMC11938259, “Heme delivery into soluble guanylyl cyclase requires a heme redox change and is regulated by NO and Hsp90 by distinct mechanisms” (The Journal of Biological Chemistry, 2025).

Biological target: FlAsH-labeled TC-apo-sGCβ (rat sGCβ(1–385) with a TC motif) (rat, UniProt P20595 1-385, TC motif (CCPGCC) inserted at residue 239 to 244, FlAsH dye bound to the tetra-Cys (TC) motif; heme-free (apo))
Test: cell-based or functional assay

Sequence of FlAsH-labeled TC-apo-sGCβ (rat sGCβ(1–385) with a TC motif) (P20595 other isoform, or with tags, fused parts or gaps TC motif (CCPGCC) inserted at residue 239 to 244): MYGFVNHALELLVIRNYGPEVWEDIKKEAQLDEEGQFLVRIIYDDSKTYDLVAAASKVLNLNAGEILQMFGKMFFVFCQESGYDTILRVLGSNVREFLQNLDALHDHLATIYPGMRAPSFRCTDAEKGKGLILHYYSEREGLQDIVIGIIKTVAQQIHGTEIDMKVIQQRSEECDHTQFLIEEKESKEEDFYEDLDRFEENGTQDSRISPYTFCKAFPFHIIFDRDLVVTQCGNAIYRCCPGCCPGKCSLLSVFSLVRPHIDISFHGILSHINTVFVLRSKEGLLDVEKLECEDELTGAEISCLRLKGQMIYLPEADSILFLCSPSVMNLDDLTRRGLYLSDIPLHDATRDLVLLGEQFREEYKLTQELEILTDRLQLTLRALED

heme transfer (FlAsH fluorescence kinetics) from the GAPDH–heme complex to a preformed complex of GAPDH bound on FlAsH-TC-apo-sGCβ, against FlAsH-TC-apo-sGCβ alone (Fig. S4): 5 fold slower
B1: glyceraldehyde 3-phosphate dehydrogenase (GAPDH), human (enzyme)
chain: not shown
